Test results: the supplement of paper PMC9112550, “Optimization of the antimicrobial peptide Bac7 by deep mutational scanning” (BMC Biology, 2022)

Test system: Escherichia coli TOP10
Test: shrunken log2 fold change of peptide-encoding DNA abundance (4.5 h post-induction vs induction); higher = less antimicrobial activity (less host growth inhibition)
Conditions: time post-induction: 4.5 h; library: site-saturation at positions 5, 18, 19, 20
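Also: peptides expressed intracellularly from a pBAD plasmid library in pooled LB shake-flask culture, induced with 0.3% L-arabinose, DNA abundance read by NGS, three biological replicates, DESeq2 with apeglm shrinkage.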

| Sequence | shrunken log2 fold change |
| --- | --- |
| RRIRRRPPRLPRPRPRPRKPPRP | 0.153 |
| RRIRRRPPRLPRPRPRPLSCPRP | -0.146 |
| RRIRHRPPRLPRPRPRPYAQPRP | -0.279 |
| RRIRSRPPRLPRPRPRPWSMPRP | -0.176 |
| RRIRQRPPRLPRPRPRPIGSPRP | -0.00968 |
| RRIRIRPPRLPRPRPRPECCPRP | 0.0559 |
| RRIRGRPPRLPRPRPRPTMDPRP | 0.985 |
| RRIRNRPPRLPRPRPRPACEPRP | 0.172 |
| RRIRRRPPRLPRPRPRPREIPRP | 0.479 |
| RRIRNRPPRLPRPRPRPEACPRP | 0.0475 |
| RRIRVRPPRLPRPRPRPIEWPRP | -0.000773 |
| RRIRYRPPRLPRPRPRPPDNPRP | -0.185 |
| RRIRHRPPRLPRPRPRPADKPRP | -0.245 |
| RRIRWRPPRLPRPRPRPKYWPRP | 0.0306 |
| RRIRLRPPRLPRPRPRPGVNPRP | 0.0348 |
| RRIRIRPPRLPRPRPRPHLHPRP | -0.784 |
| RRIRARPPRLPRPRPRPGAIPRP | 0.828 |
| RRIRARPPRLPRPRPRPHCGPRP | 0.507 |
| RRIRHRPPRLPRPRPRPNARPRP | -0.0163 |
| RRIRPRPPRLPRPRPRPYPYPRP | -0.124 |
| RRIRLRPPRLPRPRPRPQLPPRP | 0.178 |
| RRIRARPPRLPRPRPRPPLRPRP | 1.63 |
| RRIRNRPPRLPRPRPRPHRNPRP | -0.176 |
| RRIRDRPPRLPRPRPRPLFRPRP | -0.168 |
| RRIRTRPPRLPRPRPRPFHAPRP | -0.0296 |

| Sequence | shrunken log2 fold change |
| --- | --- |
| RRIRPRPPRLPRPRPRPNSNPRP | -0.762 |
| RRIRTRPPRLPRPRPRPDGFPRP | -0.0487 |
| RRIRRRPPRLPRPRPRPRSSPRP | 0.0954 |
| RRIRCRPPRLPRPRPRPIIKPRP | -1.01 |
| RRIRQRPPRLPRPRPRPILWPRP | -0.185 |
| RRIRDRPPRLPRPRPRPFRIPRP | 0.0432 |
| RRIRVRPPRLPRPRPRPYGQPRP | -0.0728 |
| RRIRDRPPRLPRPRPRPPVFPRP | 1.59 |
| RRIRWRPPRLPRPRPRPKRGPRP | 0.239 |
| RRIRKRPPRLPRPRPRPHVCPRP | -0.00289 |
| RRIRVRPPRLPRPRPRPERDPRP | -0.15 |
| RRIRKRPPRLPRPRPRPEHDPRP | 0.169 |
| RRIRHRPPRLPRPRPRPDFFPRP | -0.26 |
| RRIRCRPPRLPRPRPRPKYCPRP | -0.264 |
| RRIRSRPPRLPRPRPRPLTHPRP | -0.569 |
| RRIRHRPPRLPRPRPRPNWLPRP | -0.165 |
| RRIRERPPRLPRPRPRPQDDPRP | 0.121 |
| RRIRLRPPRLPRPRPRPVHVPRP | -0.0937 |
| RRIRFRPPRLPRPRPRPICCPRP | -0.134 |
| RRIRNRPPRLPRPRPRPSIVPRP | -0.335 |
| RRIRLRPPRLPRPRPRPNEPPRP | -0.213 |
| RRIRIRPPRLPRPRPRPQKGPRP | -0.33 |
| RRIRCRPPRLPRPRPRPCMKPRP | -0.368 |
| RRIRIRPPRLPRPRPRPSYYPRP | -1.34 |
| RRIRFRPPRLPRPRPRPYRRPRP | -0.506 |

| Sequence | shrunken log2 fold change |
| --- | --- |
| RRIRKRPPRLPRPRPRPWPHPRP | 0.298 |
| RRIRYRPPRLPRPRPRPKIYPRP | -0.884 |
| RRIRYRPPRLPRPRPRPKWRPRP | 0.0685 |
| RRIRWRPPRLPRPRPRPMCLPRP | -0.0933 |
| RRIRTRPPRLPRPRPRPWVQPRP | -0.0274 |
| RRIRARPPRLPRPRPRPSSLPRP | 0.00294 |
| RRIRWRPPRLPRPRPRPVVLPRP | -0.0385 |
| RRIRMRPPRLPRPRPRPEWAPRP | 1.36 |
| RRIRERPPRLPRPRPRPAEMPRP | -0.0352 |
| RRIRFRPPRLPRPRPRPEVAPRP | -0.088 |
| RRIRRRPPRLPRPRPRPTRMPRP | 1.08 |
| RRIRSRPPRLPRPRPRPTYMPRP | -0.55 |
| RRIRTRPPRLPRPRPRPNQQPRP | 0.00192 |
| RRIRHRPPRLPRPRPRPWKKPRP | -0.0699 |
| RRIRPRPPRLPRPRPRPKQEPRP | 0.138 |
| RRIRSRPPRLPRPRPRPIFIPRP | -0.329 |
| RRIRHRPPRLPRPRPRPGINPRP | -0.422 |
| RRIRIRPPRLPRPRPRPVAMPRP | -0.0657 |
| RRIRDRPPRLPRPRPRPSPDPRP | 0.312 |
| RRIRHRPPRLPRPRPRPCDSPRP | -0.00145 |
| RRIRGRPPRLPRPRPRPSDEPRP | 0.178 |
| RRIRYRPPRLPRPRPRPFRHPRP | -0.16 |
| RRIRYRPPRLPRPRPRPKPMPRP | 0.0517 |
| RRIRSRPPRLPRPRPRPDLRPRP | 0.248 |
| RRIRVRPPRLPRPRPRPWWTPRP | -0.0418 |
